By Kd is commonly meant a measure of binding affinity in units of concentration.

The values that follow come from publication PMC8442604 (Frontiers in Immunology, 2021).

Assay [1] has as its target T1, SARS-CoV-2 RBD protein (321–591) (SARS-CoV-2, Wuhan-Hu-1 (MN908947), UniProt P0DTC2). Nature of the assay: SPR. As to conditions: both partners purified.
Assay [2] concerns the target T1, SARS-CoV-2 RBD protein (321–591). Nature of the assay: cell-based or functional assay.

B1: S309H-XG81L (antibody, V domains shown)
VH: not shown
VL: DIQMTQSPSSLSASVGDRVTITCRASQSISSSLNWYQQKPGKAPKLLIYAASNLQSGVPSRFSGSGSGTDFTLTISSLQPEDFATYYCQQSFSTLFTFGPGTKVDLK
notes: also called rAb S309H-XG81L
Molecule B1 gave a Kd in assay [1] of 21.1 nM. In addition, the “IC50 of neutralisation of authentic SARS-CoV-2 on Vero E6 cells (CPE assay)” value in assay [2] turned out to be 1.25 µg/mL.
